Article PMC2572730, “Structural Basis for the Recognition of Histone H4 by the Histone-Chaperone RbAp46” (Structure(London, England:1993), 2008)

B1: E356Q + D357N + E359Q + D360N: RbAp46 mutated in the charged PP loop (protein, UniProt Q16576 2-425, looked up, variant E356Q D357N E359Q D360N)
Histone-binding protein RBBP7: ASKEMFEDTVEERVINEEYKIWKKNTPFLYDLVMTHALQWPSLTVQWLPEVTKPEGKDYALHWLVLGTHTSDEQNHLVVARVHIPNDDAQFDASHCDSDKGEFGGFGSVTGKIECEIKINHEGEVNRARYMPQNPHIIATKTPSSDVLVFDYTKHPAKPDPSGECNPDLRLRGHQKEGYGLSWNSNLSGHLLSASDDHTVCLWDINAGPKEGKIVDAKAIFTGHSAVVEDVAWHLLHESLFGSVADDQKLMIWDTRSNTTSKPSHLVDAHTAEVNCLSFNPYSEFILATGSADKTVALWDLRNLKLKLHTFESHKDEIFQVHWSPHNETILASSGTDRRLNVWDLSKIGEEQSAQNAQNGPPELLFIHGGHTAKISDFSWNPNEPWVICSVSEDNIMQIWQMAENIYNDEESDVTTSELEGQGS
B2: L30Y: RbAp46 mutated in the hydrophobic surface of helix 1 (protein)
chain: MASKEMFEDTVEERVINEEYKIWKKNTPFYYDLVMTHALQWPSLTVQWLPEVTKPEGKDYALHWLVLGTHTSDEQNHLVVARVHIPNDDAQFDASHCDSDKGEFGGFGSVTGKIECEIKINHEGEVNRARYMPQNPHIIATKTPSSDVLVFDYTKHPAKPDPSGECNPDLRLRGHQKEGYGLSWNSNLSGHLLSASDDHTVCLWDINAGPKEGKIVDAKAIFTGHSAVVEDVAWHLLHESLFGSVADDQKLMIWDTRSNTTSKPSHLVDAHTAEVNCLSFNPYSEFILATGSADKTVALWDLRNLKLKLHTFESHKDEIFQVHWSPHNETILASSGTDRRLNVWDLSKIGEEQSAEDAEDGPPELLFIHGGHTAKISDFSWNPNEPWVICSVSEDNIMQIWQMAENIYNDE
modifications: 35S-labeled
notes: RbAp46 mutated in the hydrophobic surface of helix 1

Tested on: GST-histone H4 1–48
Assay: Pull-down of 35S-labeled RbAp46 mutants with GST-histone H4 1–48
Format: binding
Settings: autoradiogram, 300 mM NaCl, 20 mM Tris pH 8.0, 5 mM DTT, 0.1% (v/v) NP-40
From the text: Figure 2 Histone H4 Recognition by the RbAp46-Binding Pocket (A) Electrostatic surface potential of RbAp46 contoured and color coded at −91 kT (red) and +91 kT (blue). […] The histone H4 peptide is shown as a stick model. The histone H4-binding pocket in RbAp46 is mainly formed by the negatively charged PP loop (which terminates in Pro-362 and Pro-363) and a hydrophobic surface on the N-terminal α helix (helix 1). The interaction of histone H4 residues (Gln-27, Lys-31, Ile-34, Arg-35, Arg-36, Leu-37, Arg-39, and Arg-40) is shown. (B) Detailed view showing the interactions of the hydrophobic Ile-34 and Leu-37 histone H4 residues with Phe-29 and Leu-30 in helix 1 of RbAp46, as well as the positively charged Arg-36, Arg-39, and Arg-40 histone H4 residues with the backbone carbonyl groups in the PP loop and a cluster of acidic residues (Glu-356, Asp-357, and Asp-360) in RbAp46. […] In each experiment, the input lane contains 30% of the ^35S-labeled RbAp46 protein used in each of the pull-down assays. The experiments were carried out in 300 mM NaCl, 20 mM Tris (pH 8.0), 5 mM DTT, and 0.1% (v/v) NP-40.
Recombinant histone H4 and RbAp46 proteins were expressed and purified as described previously ([Verreault et al., 1998; Berger et al., 2004]). Detailed procedures for the generation of the RbAp46/histone H4 peptide and recombinant histone H4 complexes can be found in the Supplemental Data. […]

| Molecule | Effect of RbAp46 mutation on interaction with histone H4 |
| --- | --- |
| B1 | disrupt the interaction with histone H4 |
| B2 | disrupt the interaction with histone H4 |
